These results are taken from publication doi:10.1101/2024.06.13.598777, “Acetylation of the yeast Hsp40 chaperone protein Ydj1 fine-tunes proteostasis and translational fidelity” (bioRxiv, 2024).

The assay concerns the target T1, Ssa1 (purified) (yeast, UniProt P10591 1-642).
T1 construct: Ssa1, yeast Hsp70; also called Hsp70; source: isolated as previously described [51]
Description: BLI; Ydj1-biotin (5 ug/ml) on streptavidin biosensors, Ssa1 1 uM in solution, 23 °C, 25 mM Hepes pH 7.5, 50 mM KCl, 2 mM DTT, 5 mM MgCl2, 0.5 mM ATP, 0.02% Tween-20; Octet R4; reference sensor subtracted. To be noted: both partners purified.

Residue numbers refer to the chain shown, from its start. In names and notes the source's numbering stands.

T1 sequence (P10591 whole entry): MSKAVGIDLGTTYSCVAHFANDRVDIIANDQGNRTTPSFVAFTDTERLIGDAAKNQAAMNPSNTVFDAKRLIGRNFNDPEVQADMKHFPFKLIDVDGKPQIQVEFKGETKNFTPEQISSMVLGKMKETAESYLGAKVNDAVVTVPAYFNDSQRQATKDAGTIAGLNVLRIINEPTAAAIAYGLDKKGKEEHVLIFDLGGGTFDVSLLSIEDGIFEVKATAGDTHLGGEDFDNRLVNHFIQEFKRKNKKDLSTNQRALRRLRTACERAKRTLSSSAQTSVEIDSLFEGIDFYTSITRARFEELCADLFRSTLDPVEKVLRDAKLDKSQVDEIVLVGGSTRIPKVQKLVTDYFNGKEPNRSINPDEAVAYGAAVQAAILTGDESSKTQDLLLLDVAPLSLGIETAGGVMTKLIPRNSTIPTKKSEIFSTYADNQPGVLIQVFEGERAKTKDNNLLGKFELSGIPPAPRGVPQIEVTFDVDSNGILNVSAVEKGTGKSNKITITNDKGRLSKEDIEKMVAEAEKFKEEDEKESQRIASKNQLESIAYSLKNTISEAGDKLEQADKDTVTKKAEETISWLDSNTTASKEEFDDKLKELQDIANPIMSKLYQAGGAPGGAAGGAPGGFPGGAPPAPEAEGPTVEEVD

B1: His-tagged Ydj1 wild-type, biotinylated (natural protein, yeast, UniProt P25491 1-409, looked up)
chain: MVKETKFYDILGVPVTATDVEIKKAYRKCALKYHPDKNPSEEAAEKFKEASAAYEILSDPEKRDIYDQFGEDGLSGAGGAGGFPGGGFGFGDDIFSQFFGAGGAQRPRGPQRGKDIKHEISASLEELYKGRTAKLALNKQILCKECEGRGGKKGAVKKCTSCNGQGIKFVTRQMGPMIQRFQTECDVCHGTGDIIDPKDRCKSCNGKKVENERKILEVHVEPGMKDGQRIVFKGEADQAPDVIPGDVVFIVSERPHKSFKRDGDDLVYEAEIDLLTAIAGGEFALEHVSGDWLKVGIVPGEVIAPGMRKVIEGKGMPIPKYGGYGNLIIKFTIKFPENHFTSEENLKKLEEILPPRIVPAIPKKATVDECVLADFDPAKYNRTRASRGGANYDSDEEEQGGEGVQCASQ
modifications: biotin (labeled with a 1.5-fold excess of NHS-PEG4-Biotin)
notes: Ydj1, yeast Hsp40; YDJ1 gene PCR amplified from yeast genomic DNA into pRSETA; A fragment lacking the J-domain (delta J) co-purifies with the recombinant protein; also called Ydj1-biotin; HIS-Ydj1; source: E. coli Rosetta (DE3), purified (Ni-sepharose, Superdex 200)
On to B1, for which the binding result is given as “binds”.

B2: His-tagged Ydj1 K23Q, biotinylated (natural protein, yeast, UniProt P25491 1-409, looked up)
chain: B1 chain with K23Q
modifications: biotin (labeled with a 1.5-fold excess of NHS-PEG4-Biotin)
notes: Ydj1, yeast Hsp40, acetyl-mimic mutant; Same construct as m5 with the mutation; source: E. coli Rosetta (DE3), purified (Ni-sepharose, Superdex 200)
Consider B2, for which the binding result is recorded as “binds”.

B3: His-tagged Ydj1 K23R, biotinylated (natural protein, yeast, UniProt P25491 1-409, looked up)
chain: B1 chain with K23R
modifications: biotin (labeled with a 1.5-fold excess of NHS-PEG4-Biotin)
notes: Same construct as m5 with the mutation; source: E. coli Rosetta (DE3), purified (Ni-sepharose, Superdex 200)
In the case of B3, the binding result is “binds”.

B4: His-tagged Ydj1 K37R, biotinylated (natural protein, yeast, UniProt P25491 1-409, looked up)
chain: B1 chain with K37R
modifications: biotin (labeled with a 1.5-fold excess of NHS-PEG4-Biotin)
notes: as for B3
In the case of B4, the binding result is listed as “binds”.
